Measurements as given in patent publication US20160200831A1 (Sanofi, published 2016).
Substitutions are numbered along the chain they refer to. Where two headings read alike, the source gives them in different places. Each block holds one binder with its values, some of them ahead of it.

Assays:
[1] = target: T1, human PAI-1 (human, UniProt P05121 24-402); experiment: cell-based or functional assay
[2] = target: T2, glycosylated human PAI-1 (active form) (human, UniProt P05121 24-402, glycosylated); experiment: cell-based or functional assay
T2 sequence (P05121 24-402 limits assumed): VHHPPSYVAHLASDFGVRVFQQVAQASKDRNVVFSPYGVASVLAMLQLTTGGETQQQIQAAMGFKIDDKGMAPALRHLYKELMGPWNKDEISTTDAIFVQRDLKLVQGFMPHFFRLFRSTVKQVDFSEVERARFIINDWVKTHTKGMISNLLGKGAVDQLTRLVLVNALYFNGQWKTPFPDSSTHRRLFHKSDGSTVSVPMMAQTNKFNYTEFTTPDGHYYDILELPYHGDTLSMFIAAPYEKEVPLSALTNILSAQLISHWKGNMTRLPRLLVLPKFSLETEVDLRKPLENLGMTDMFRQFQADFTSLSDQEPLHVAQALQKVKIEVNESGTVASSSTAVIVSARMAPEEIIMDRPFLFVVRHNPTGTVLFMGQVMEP

[3] = target: T2, glycosylated human PAI-1 (active form); experiment: cell-based or functional assay; remark: listed apart in the source
[4] = target: T3, cyno PAI-1 captured on immobilized human vitronectin (cynomolgus monkey; human, UniProt P04004 20-478, limits assumed); experiment: Biacore, cPAI-1 on vitronectin chip, 1:1 model
T3 construct: non-covalent complex formed on the chip; also called cPAI-1/Vn
T3 sequence (chain, as listed by the source limits assumed, chain 1 of 2): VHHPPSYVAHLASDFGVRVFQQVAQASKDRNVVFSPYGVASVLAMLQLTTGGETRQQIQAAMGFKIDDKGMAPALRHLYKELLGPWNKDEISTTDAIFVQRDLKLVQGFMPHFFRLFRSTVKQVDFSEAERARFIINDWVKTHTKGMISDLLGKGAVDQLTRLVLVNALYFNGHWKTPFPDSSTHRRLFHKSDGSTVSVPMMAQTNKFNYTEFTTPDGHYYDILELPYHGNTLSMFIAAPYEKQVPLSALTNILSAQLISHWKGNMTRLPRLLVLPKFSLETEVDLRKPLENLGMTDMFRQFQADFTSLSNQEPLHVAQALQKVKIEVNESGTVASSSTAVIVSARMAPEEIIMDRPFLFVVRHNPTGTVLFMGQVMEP
T3 sequence (P04004 20-478 limits assumed, chain 2 of 2): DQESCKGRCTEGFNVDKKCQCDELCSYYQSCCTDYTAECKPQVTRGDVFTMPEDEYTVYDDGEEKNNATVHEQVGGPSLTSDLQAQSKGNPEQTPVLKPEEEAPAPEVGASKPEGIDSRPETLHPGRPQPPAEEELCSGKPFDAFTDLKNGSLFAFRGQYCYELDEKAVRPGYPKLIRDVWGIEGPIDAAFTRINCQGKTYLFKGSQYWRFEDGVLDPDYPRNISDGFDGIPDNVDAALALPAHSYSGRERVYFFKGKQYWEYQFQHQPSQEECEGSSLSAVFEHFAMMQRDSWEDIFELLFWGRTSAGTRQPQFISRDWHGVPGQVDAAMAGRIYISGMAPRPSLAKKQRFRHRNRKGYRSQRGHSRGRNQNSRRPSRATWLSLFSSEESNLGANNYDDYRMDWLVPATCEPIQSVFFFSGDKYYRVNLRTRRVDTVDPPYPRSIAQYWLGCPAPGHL

[5] = target: T4, human PAI-1 captured on immobilized human vitronectin (human, UniProt P04004 20-478); experiment: Biacore, hPAI-1 on vitronectin chip, 1:1 model
T4 construct: non-covalent complex formed on the chip or plate; also called PAI-1/Vn complex; Vn captured hPAI-1
T4 sequence (chain, as listed by the source limits assumed, chain 1 of 2): as the sequence (P05121 24-402 limits assumed) above
T4 sequence (P04004 20-478 limits assumed, chain 2 of 2): as the sequence (P04004 20-478 limits assumed, chain 2 of 2) above

[6] = target: T1, human PAI-1; experiment: cell-based or functional assay; remark: listed apart in the source
[7] = target: T5, cynomolgus PAI-1 (cynomolgus monkey (Macaca fascicularis), UniProt P05121 24-402 (human entry)); experiment: cell-based or functional assay
[8] = target: T1, human PAI-1; experiment: Biacore, mAb on anti-human IgG Fc chip, 1:1 model
[9] = target: T5, cynomolgus PAI-1; experiment: Biacore, mAb on anti-human IgG Fc chip / cyno PAI-1, 1:1 model
[10] = target: T1, human PAI-1; experiment: cell-based or functional assay; remark: listed apart in the source
[11] = target: T2, glycosylated human PAI-1 (active form); experiment: cell-based or functional assay; remark: listed apart in the source
[12] = target: T2, glycosylated human PAI-1 (active form); experiment: SPR Biacore 2000, mAb captured by anti-Fc, single-cycle kinetics, 1:1 model
Method: First, the surface of a Sensor Chip CM5 (GE Healthcare, Uppsala, Sweden) was prepared using routine amine coupling for the capture of the mouse and human anti-Fc (Anti-human IgG (Fc) antibody & Anti-mouse IgG antibody kits, GE Healthcare). All monoclonal antibodies (mAbs) were diluted to 5 nM using HBS-EP running buffer. Each purified mAb was captured for three minutes on a different flow cell surface. Human PAI-1 was injected at various concentrations (2.5, 5, 10, 20 and 40 nM) with short dissociation times in between and a long dissociation time at the end (contact time: 120 seconds, short dissociation: 90 seconds; long dissociation: 1800 seconds, flow rate: 50 μl/min). The chip was regenerated by glycine-HCl, pH 1.7 buffer after each round of antibody-PAI-1 binding. Kinetics data analysis was performed using Biacore BIAevaluation software. The sensorgrams were double-referenced by subtracting the reference flow cell values and the blank buffer values. The sensorgrams were fitted by using the simulated kinetics 1:1 (Langmuir) model with local Rmax. (see FIG. 19).

[13] = target: T2, glycosylated human PAI-1 (active form); experiment: cell-based or functional assay; remark: listed apart in the source
[14] = target: T2, glycosylated human PAI-1 (active form); experiment: cell-based or functional assay; remark: listed apart in the source
[15] = target: T1, human PAI-1; experiment: Biacore, hybridoma supernatant
[16] = target: T3, cyno PAI-1 captured on immobilized …; experiment: Biacore, cPAI-1 on vitronectin chip, two state reaction model
[17] = target: T3, cyno PAI-1 captured on immobilized …; experiment: Biacore, cPAI-1 on vitronectin chip, two state reaction model (ka1)
[18] = target: T3, cyno PAI-1 captured on immobilized …; experiment: Biacore, cPAI-1 on vitronectin chip, two state reaction model (kd1)

T1 sequence (P05121 24-402 limits assumed): as the sequence (P05121 24-402 limits assumed) above

B1: A44-hv9 (antibody, V domains shown)
VH: QMQLQESGPGLVKPSETLSLTCTVSGDSMTNGYWNWIRQPPGKGLEYMGYITYSGSTYYNPSLKSRITISRDTSKNQYSLKLSSVTAADTAVYYCARWHYGSPYYFDYWGQGTLVTVSS
VL: DIQMTQSPSSLSASVGDRVTITCKASQDINSYLSWLQQKPGKAPKTLIYRANRSVDGVPSRFSGSGSGQDYTFTISSLQPEDIATYYCLQYDEFPPTFGGGTKVEIK
notes: humanized A44, HEK293; constant regions as for A44-hv1; also called LC5b x HC5b; variant 9
- Chromogenic Assay IC50 [1]: 0.86 nM
- Plasminogen Activation IC50 [2]: 1.9 nM
- Plasminogen Activation Y50% [2]: 46.5%
- Plasminogen Activation IC50 [3]: 1.51 nM
- Plasminogen Activation Y50% [3]: 50.9%
- Kd [4]: 0.0215 nM
- koff [4]: 0.000134 s⁻¹
- kon [4]: 6.51e+06 M⁻¹ s⁻¹
- Kd [5]: 0.017 nM
- koff [5]: 0.000103 s⁻¹
- kon [5]: 6.36e+06 M⁻¹ s⁻¹

- Plasminogen Activation IC50 [3]: 1.82 nM
- Plasminogen Activation Y50% [3]: 61.2%
- active PAI-1 by uPA-PAI-1 complex ELISA, hPAI-1 Standard, IC50 [6]: 0.0563 nM
- active PAI-1 by uPA-PAI-1 complex ELISA, hPAI-1 Standard, Y50% [6]: 52.5%
- active PAI-1 by uPA-PAI-1 complex ELISA, hPlasma TH1782, IC50 [6]: 0.0586 nM
- active PAI-1 by uPA-PAI-1 complex ELISA, hPlasma TH1782, Y50% [6]: 73.9%
- active PAI-1 by uPA-PAI-1 complex ELISA, Cyno PAI-1, IC50 [7]: 0.0287 nM
- active PAI-1 by uPA-PAI-1 complex ELISA, Cyno PAI-1, Y50% [7]: 52.5%
- Kd [4]: 0.0386 nM
- koff [4]: 0.000213 s⁻¹
- kon [4]: 5.86e+06 M⁻¹ s⁻¹
- Kd [5]: 0.00957 nM
- koff [5]: 3.95e-05 s⁻¹
- kon [5]: 4.06e+06 M⁻¹ s⁻¹
- Kd [8]: 0.027 nM
- koff [8]: 3.42e-05 s⁻¹
- kon [8]: 1.25e+06 M⁻¹ s⁻¹
- Kd [9]: 0.0115 nM
- koff [9]: 2.69e-05 s⁻¹
- kon [9]: 2.32e+06 M⁻¹ s⁻¹
B2: A44-hv14 (antibody, V domains shown)
VH: B1 VH
VL: B1 VL with Q3K, A43S, N52Q, D56E, T72S, F73L, I83L, V104L
notes: humanized A44, HEK293; constant regions as for A44-hv1; also called LC4 x HC5b; variant 14

- PAI-1 activity in human plasma (uPA-PAI-1 complex ELISA), IC50abs [10]: 0.962 nM
- PAI-1 activity in human plasma (uPA-PAI-1 complex ELISA), Imax [10]: 94.5%
- human plasma clot lysis, IC50 [11]: 2.08 nM
- human plasma clot lysis, Imax @ 100 nM [11]: 114%
- Kd [12]: 0.0408 nM
- koff [12]: 0.000269 s⁻¹
B3: APGv2 (antibody, V domains shown)
VH: QVQLVQSGSELKKPGASVKVSCKASGYSFTDYNMNWVRQAPGQGLEWIGIIHPNSGTTTYNQKFKGRAVLSVDQSVSTAYLQISSLKAEDTAVYYCARSKLRFFDYWGQGTLVTVSS
VL: B1 VL with M4L, N30Y, L36F, S54L, V55I, P96F, G100Q, V104L
notes: humanized APG; captured by anti-human IgG (Fc); also called APG variant 2

- Chromogenic Assay IC50 [1]: 0.76 nM
- Plasminogen Activation Y50% [2]: 11%
B4: A44-hv8 (antibody, V domains shown)
VH: B1 VH with M2V, D72N
VL: B1 VL with T46L, Q69T

- plasmin generation, hepatic stellate cells, IC50abs [13]: 6.5 nM
- plasmin generation, hepatic stellate cells, Imax [13]: 97%
- Chromogenic Assays [14]: 0.5 nM
- Plasmin Generation [14]: 10.6 nM
- koff [15]: ≤ 0.0001 s⁻¹
B5: C45 (antibody, mouse IgG2b, V domains shown)
VH: QVQLQQSGVELVRPGTSVKVSCKASGYAFTNYLIEWIKQRPGQGLEWIGVIHPGSGVTNYNEKFKGKAILTADKSSSTAYMQLSSLTSDDSAVYFCARDYYGSSHGLMDYWGQGTSVTVSS
VL: DIKMTQSPSSMYASLGERVTITCKASQDINSYLSWFQQKPGKSPKTLIYRANRLVDGVPSRFSGSGSGQDYSLTISSLEYEDMGIYYCLQYDEFPRTFGGGTKLEIK
notes: mouse IgG2b; also called mC45; C45 (IgG2b)

- PAI-1 activity in human plasma (uPA-PAI-1 complex ELISA), IC50abs [10]: 1.81 nM
- PAI-1 activity in human plasma (uPA-PAI-1 complex ELISA), Imax [10]: 89.7%
- human plasma clot lysis, IC50 [11]: 2.34 nM
- human plasma clot lysis, Imax @ 100 nM [11]: 123%
- Kd [12]: 0.113 nM
- koff [12]: 0.000432 s⁻¹
B6: APG (antibody, V domains shown)
VH: QVKLQESGPELVKPGASVKISCKASGYSFTDYNMNWVKQSKGKSLEWIGIIHPNSGTTTYNQKFKGKATLTVDQSSSTAYLQLNSLTSEDSAVYYCARSKLRFFDYWGQGTTVTVSS
VL: B5 VL with M4L, N30Y, V55I, D82H, R96F, G100S
notes: murine anti-PAI-1 antibody of DE2000153251; also called mAPG; mouse APG

- Plasminogen Activation IC50 [3]: 1.99 nM
- Plasminogen Activation Y50% [3]: 76.7%
- active PAI-1 by uPA-PAI-1 complex ELISA, hPAI-1 Standard, IC50 [6]: 0.114 nM
- active PAI-1 by uPA-PAI-1 complex ELISA, hPAI-1 Standard, Y50% [6]: 53.5%
- active PAI-1 by uPA-PAI-1 complex ELISA, hPlasma TH1782, IC50 [6]: 0.00335 nM
- active PAI-1 by uPA-PAI-1 complex ELISA, hPlasma TH1782, Y50% [6]: 37.7%
- active PAI-1 by uPA-PAI-1 complex ELISA, Cyno PAI-1, IC50 [7]: 0.0266 nM
- active PAI-1 by uPA-PAI-1 complex ELISA, Cyno PAI-1, Y50% [7]: 53.5%
- Kd [4]: 0.0569 nM
- koff [4]: 0.000235 s⁻¹
- kon [4]: 4.26e+06 M⁻¹ s⁻¹
- Kd [5]: 0.0161 nM
- koff [5]: 8.14e-05 s⁻¹
- kon [5]: 5.15e+06 M⁻¹ s⁻¹
- Kd [8]: 0.0414 nM
- koff [8]: 6.7e-05 s⁻¹
- kon [8]: 1.62e+06 M⁻¹ s⁻¹
- Kd [9]: 0.0244 nM
- koff [9]: 5.45e-05 s⁻¹
- kon [9]: 2.24e+06 M⁻¹ s⁻¹
B7: A44-hv12 (antibody, V domains shown)
VH: QMTLKESGPTLVKPTQTLSLTCSVSGDSMTNGYWNWIRQFPGKALEYMGYITYSGSTYYNPSLKGRITITRDTSKNQYYLTLSSVTTVDTATYYCARWHYGSPYYFDYWGQGTTLTVSS
VL: B1 VL with Q3K, A43S, N52Q, D56E, T72S, F73L, I83L, V104L
notes: humanized A44, HEK293; constant regions as for A44-hv1; also called LC4 x HC3; variant 12

B8: A44-hv4 (antibody, V domains shown)
VH: B7 VH with Q1E, S25T, N31Q, Q39K, T68S, D72N
VL: B1 VL with Q3K, A43S, T72S, F73L, I83L, A84G, T85I, V104L
notes: humanized A44, HEK293; constant regions as for A44-hv1; also called LC1a x HC2b; variant 4
- Chromogenic Assay IC50 [1]: 0.52 nM
- Plasminogen Activation Y50% [2]: 26%
- Kd [5]: 0.0192 nM
- koff [5]: 8.8e-05 s⁻¹
- kon [5]: 4.59e+06 M⁻¹ s⁻¹
- Kd [16]: 0.752 nM
- kon [17]: 226000 M⁻¹ s⁻¹
- koff [18]: 0.00017 s⁻¹

B9: A44-hv5 (antibody, V domains shown)
VH: B7 VH with Q1E, S25T, N31Q, Q39K, T68S, D72N
VL: B1 VL with Q3K, A43S, N52Q, D56E, T72S, F73L, I83L, A84G, T85I, V104L
notes: humanized A44, HEK293; constant regions as for A44-hv1; also called LC2 x HC2b; variant 5
- Chromogenic Assay IC50 [1]: 1.11 nM
- Kd [4]: 0.0326 nM
- koff [4]: 0.000111 s⁻¹
- kon [4]: 3.4e+06 M⁻¹ s⁻¹
- Kd [5]: 0.0102 nM
- koff [5]: 2.76e-05 s⁻¹
- kon [5]: 2.72e+06 M⁻¹ s⁻¹

B10: A44-hv1 (antibody, V domains shown)
VH: B7 VH with Q1E, S25T, Q39K, T68S, D72N
VL: B1 VL with Q3K, A43S, T72S, F73L, I83L, A84G, T85I, V104L
notes: humanized A44, HEK293; also called LC1a x HC1a; variant 1
- Chromogenic Assay IC50 [1]: 0.49 nM
- Plasminogen Activation IC50 [2]: 3.12 nM
- Plasminogen Activation Y50% [2]: 45%
- Plasminogen Activation IC50 [3]: 2.08 nM
- Plasminogen Activation Y50% [3]: 58.5%
- Kd [5]: 0.0526 nM
- koff [5]: 0.000555 s⁻¹
- kon [5]: 1.1e+07 M⁻¹ s⁻¹
- Kd [16]: 2.45 nM
- kon [17]: 3.37e+06 M⁻¹ s⁻¹
- koff [18]: 0.00827 s⁻¹

B11: A44-hv6 (antibody, V domains shown)
VH: B7 VH
VL: B1 VL with Q3K, A43S, T72S, F73L, I83L, V104L
notes: humanized A44, HEK293; constant regions as for A44-hv1; also called LC3 x HC3; variant 6
- Chromogenic Assay IC50 [1]: 0.82 nM
- Plasminogen Activation IC50 [2]: 1.78 nM
- Plasminogen Activation Y50% [2]: 56.9%
- Kd [4]: 0.00501 nM
- koff [4]: 2.51e-05 s⁻¹
- kon [4]: 5.26e+06 M⁻¹ s⁻¹
- Kd [5]: 0.0133 nM
- koff [5]: 5.68e-05 s⁻¹
- kon [5]: 4.38e+06 M⁻¹ s⁻¹
